Data on 3 molecules can be found in publication PMC5890266, “Targeting the polyadenylation factor EhCFIm25 with RNA aptamers controls survival in Entamoeba histolytica”.

The data set concerns the target T1, EhCFIm25 wild type (Entamoeba histolytica, UniProt C4M2T1 1-255).
T1 sequence: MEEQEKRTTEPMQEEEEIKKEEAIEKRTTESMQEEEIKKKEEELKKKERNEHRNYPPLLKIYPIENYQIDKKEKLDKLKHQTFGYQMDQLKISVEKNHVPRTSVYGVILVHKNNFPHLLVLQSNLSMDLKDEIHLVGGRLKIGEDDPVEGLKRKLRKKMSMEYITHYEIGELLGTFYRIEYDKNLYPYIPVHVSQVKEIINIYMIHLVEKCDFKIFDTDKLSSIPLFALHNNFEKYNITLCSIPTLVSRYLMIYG
Briefly: EMSA; REMSA: RNA probe (100 ng/ul) with 20 ug EhCFIm25 or 50 ug extract, room temperature 20 min, 10% non-denaturing PAGE, LightShift Chemiluminescent RNA EMSA Kit; buffer, salt and pH not stated. Conditions: protein: recombinant, tags: 6xHis (pRSET vector), chain copies: 2.

B1: Ehthio-3'UTR (ssRNA)
RNA: AAGGGUAGGAAAAAUUGAAACAUUAAAAGAUUUUCCUUCUUUUAAAGACAGAGUAAAAGAACCAUAUGUUGCUCCAAAAUAUGAAGAAGAAGAACUUUAAAUAAUAACUUUUUCAAGAACAAAAAUUAAUAACAAAUUUAUUUUAUUUGAUUUUACAAUUCUUGUUAUUAUAUGUUGAUAUUUAUUUAAAAUACUCUUUCUUUUAAUUUUUGUUUUUAUUAACAAUAUAUUUUAUAUUAAAUAAAGUUUAAUGAAAAAAAAGUAUUAAAAAGUUGUAAUAAACCUAAUUAAUAAAUGUUU
For the molecule B1, the binding result (label: biotin (Biotin RNA Labeling Mix)) is listed as “binds”. With AAUAAUACGACUCACUAUAGACGAAAUGGUUGUCAACGACGAUUA (ssRNA) [GUUG-probe], the binding result (label: biotin as probe) is given as “binds”. Turning to AAUAAUACGACUCACUAUAGACGAAAUGCAACUCAACGACGAUUA (ssRNA) [CAAC-probe], for the setting “label: biotin”, the binding result is reported as “no binding”.
